The record followed here is US20250361308A1 (NEUROGENE, published 2025).

Like-named read-outs stand apart in the source and are kept apart here.

The target in assay [1] is T1, Human IL-2 R beta/CD122 Protein, Fc Tag (ILB-H5253) (human, UniProt P14784 27-239).
T1 construct: Bought protein, captured on anti-human Fc sensors; also called huIL2Rβ; IL-2Rβ; not shown: Fc tag of the bought reagent
T1 sequence (looked up): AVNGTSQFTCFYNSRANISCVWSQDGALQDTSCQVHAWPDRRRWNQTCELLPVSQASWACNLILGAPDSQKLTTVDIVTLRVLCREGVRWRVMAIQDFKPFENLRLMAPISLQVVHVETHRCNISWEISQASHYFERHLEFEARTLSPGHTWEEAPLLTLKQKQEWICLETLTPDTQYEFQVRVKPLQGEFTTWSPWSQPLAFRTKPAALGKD
Briefly: Octet BLI; IL-2Rβ-Fc on anti-human Fc sensors, Neo-2/15 variant as analyte, 1:1 steady-state model. (In general: Biolayer interferometry detects binding as a change in optical thickness at a sensor tip.)

Assay [2] addresses T2, huIL2Rβγ: Human IL-2 R gamma/CD132 Protein, Fc Tag (ILG-H5256) with Human IL-2 R beta/CD122 Protein, His Tag … (human, UniProt P31785 23-254; P14784 27-239).
T2 construct: IL-2Rγ-Fc sat on the sensor; IL-2Rβ-His was in solution at a concentration equimolar to or greater than the analyte; also called IL-2RBG; not shown: Fc tag of the bought reagent; His tag of the bought reagent
T2 sequence (looked up) 1: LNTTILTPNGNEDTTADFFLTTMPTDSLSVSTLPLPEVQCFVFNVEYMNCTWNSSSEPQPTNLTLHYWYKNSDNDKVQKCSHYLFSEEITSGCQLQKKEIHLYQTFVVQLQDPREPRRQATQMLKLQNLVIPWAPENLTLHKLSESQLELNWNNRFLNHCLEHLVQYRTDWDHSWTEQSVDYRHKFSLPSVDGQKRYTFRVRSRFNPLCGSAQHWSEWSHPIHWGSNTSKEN
T2 sequence (looked up) 2: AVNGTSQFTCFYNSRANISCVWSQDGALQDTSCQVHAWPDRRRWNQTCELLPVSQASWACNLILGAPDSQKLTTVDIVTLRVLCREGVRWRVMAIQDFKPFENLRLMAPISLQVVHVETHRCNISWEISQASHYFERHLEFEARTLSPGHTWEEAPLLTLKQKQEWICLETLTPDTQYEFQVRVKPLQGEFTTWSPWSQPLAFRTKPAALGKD
As to the kind of experiment: Octet BLI; IL-2Rγ-Fc on anti-human Fc sensors with IL-2Rβ-His in solution, 1:1 steady-state model.

The target in assay [3] is T2, huIL2Rβγ: Human IL-2 R gamma/CD132 …. The description is as above. This is another data set of the same source.
Description: (§1) Binding data was collected in the Octet RED96 instrument and processed using the integrated Octet software. […] Anti-Human Fc Capture (AHC) sensors were equilibrated for 90s in 1× Cytiva HBS-EP+ Buffer 10 binding buffer. Sensors were loaded with receptor by mixing with wells containing 0.5 ug/ml aforementioned receptors until a threshold response reached 1.0 nm. Sensors were then baselined in binding buffer for 90s. After baseline measurement, the association kinetics (kon) were monitored by dipping the biosensors in wells containing analyte for 400s. […] Dissociation kinetics (koff) were monitored by dipping the biosensors in separate wells of binding buffer for 800s. The dissociation constant (Kd) was calculated using a 1:1 steady-state binding model with the Octet software.
Assay [4] addresses T1, Human IL-2 R beta/CD122 Protein, Fc Tag …. As to the kind of experiment: Octet BLI; IL-2Rβ-Fc on anti-human Fc sensors, Neo-2/15 variant as analyte, 1:1 steady-state model. This is another data set of the same source.
Description: as §1
Assay [5] addresses T3, human CD122 and CD132 expressed on a HEK293 cell line (human, UniProt P14784 27-551; P31785 23-369).
T3 construct: whole, on cells; also called IL-2RBG; IL-2Rβγ on cells
T3 sequence (looked up) 1: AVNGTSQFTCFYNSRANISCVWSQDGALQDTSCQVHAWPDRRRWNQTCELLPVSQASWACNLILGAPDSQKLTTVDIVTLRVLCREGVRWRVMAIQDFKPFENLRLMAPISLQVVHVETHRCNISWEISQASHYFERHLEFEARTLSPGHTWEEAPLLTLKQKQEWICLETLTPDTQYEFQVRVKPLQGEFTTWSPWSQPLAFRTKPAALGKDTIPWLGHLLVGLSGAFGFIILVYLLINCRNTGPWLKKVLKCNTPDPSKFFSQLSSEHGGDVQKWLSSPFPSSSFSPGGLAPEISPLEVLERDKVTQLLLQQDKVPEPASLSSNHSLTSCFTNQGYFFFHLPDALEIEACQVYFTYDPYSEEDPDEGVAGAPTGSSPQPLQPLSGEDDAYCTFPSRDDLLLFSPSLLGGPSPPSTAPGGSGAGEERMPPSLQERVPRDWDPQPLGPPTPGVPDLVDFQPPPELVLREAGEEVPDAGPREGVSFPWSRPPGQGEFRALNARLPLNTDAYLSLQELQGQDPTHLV
T3 sequence (looked up) 2: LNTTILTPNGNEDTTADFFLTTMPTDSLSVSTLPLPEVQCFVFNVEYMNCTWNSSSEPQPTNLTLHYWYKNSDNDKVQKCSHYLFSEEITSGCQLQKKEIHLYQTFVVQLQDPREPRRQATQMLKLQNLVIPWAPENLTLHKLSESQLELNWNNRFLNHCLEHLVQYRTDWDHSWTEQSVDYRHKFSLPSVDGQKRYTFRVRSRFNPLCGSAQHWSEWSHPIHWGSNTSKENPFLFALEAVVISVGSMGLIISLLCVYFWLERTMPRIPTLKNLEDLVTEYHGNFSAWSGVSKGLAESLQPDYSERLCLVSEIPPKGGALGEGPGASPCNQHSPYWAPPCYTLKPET
As to the kind of experiment: flow cytometry saturation binding on HEK293 cells expressing human CD122 and CD132; apparent KD.
Description: Saturation binding studies were done using a HEK293 cell line expressing human CD122 and CD132. […] Cells were incubated for 30 minutes on ice, then pelleted and washed twice with cold PBS. […] After a 30-minute incubation on ice, the cells were pelleted and washed twice in cold PBS. […] The apparent dissociation constant (KD) was calculated using GraphPad Prism (GraphPad, San Diego, CA).

B1: Neo-2/15_D15A (designed binder)
chain: PKKKIQLHAEHALYAALMILNIVKTNSPPAEEKLEDYAFNFELILEEIARLFESGDQKDEAEKAKRMKEWMKRIKTTASEDEQEEMANAIITILQSWIFS
Take B1: the Kd in assay [1] was 140 nM; in assay [2], 230 nM.

B2: Neo-2/15_H8A (designed binder)
chain: PKKKIQLAAEHALYDALMILNIVKTNSPPAEEKLEDYAFNFELILEEIARLFESGDQKDEAEKAKRMKEWMKRIKTTASEDEQEEMANAIITILQSWIFS
Regarding B2, the Kd is 11 nM in assay [3] and 1.4 nM in assay [4].

B3: Neo-2/15_H11A (designed binder)
chain: PKKKIQLHAEAALYDALMILNIVKTNSPPAEEKLEDYAFNFELILEEIARLFESGDQKDEAEKAKRMKEWMKRIKTTASEDEQEEMANAIITILQSWIFS
For B3, the results for the Kd in assay [3] and in assay [4] were 15 nM and 3.3 nM, respectively.

B4: Neo-2/15_I44A (designed binder)
chain: PKKKIQLHAEHALYDALMILNIVKTNSPPAEEKLEDYAFNFELALEEIARLFESGDQKDEAEKAKRMKEWMKRIKTTASEDEQEEMANAIITILQSWIFS
For B4, the Kd in assay [1] worked out at 84 nM; in assay [2], 58 nM.

B5: Neo-2/15_N40A (designed binder)
chain: PKKKIQLHAEHALYDALMILNIVKTNSPPAEEKLEDYAFAFELILEEIARLFESGDQKDEAEKAKRMKEWMKRIKTTASEDEQEEMANAIITILQSWIFS
For the molecule B5, the Kd in assay [1] was found to be 60 nM; in assay [2] it was 44 nM.

B6: Neo-2/15_Q95A (designed binder)
chain: PKKKIQLHAEHALYDALMILNIVKTNSPPAEEKLEDYAFNFELILEEIARLFESGDQKDEAEKAKRMKEWMKRIKTTASEDEQEEMANAIITILASWIFS
On to B6, for which the Kd in assay [1] was found to be 3 nM; in assay [2], 190 nM.

B7: Neo-2/15_Y14A (designed binder)
chain: PKKKIQLHAEHALADALMILNIVKTNSPPAEEKLEDYAFNFELILEEIARLFESGDQKDEAEKAKRMKEWMKRIKTTASEDEQEEMANAIITILQSWIFS
As to B7, the Kd is 10 to 20 nM in assay [3] and 0.7 nM in assay [4].

B8: C terminal anti-CD25 full-length Ab fusion with Neo-2/15_D15S_Q95E (TRA comprising SEQ ID NO: 69 and 70) (other)
heavy: QVQLVQSGAEVKKPGSSVKVSCKASGYTFTSYRMHWVRQAPGQGLEWIGYINPSTGYTEYNQKFKDKATITADESTNTAYMELSSLRSEDTAVYYCARGGGVFDYWGQGTLVTVSSASTKGPSVFPLAPSSKSTSGGTAALGCLVKDYFPEPVTVSWNSGALTSGVHTFPAVLQSSGLYSLSSVVTVPSSSLGTQTYICNVNHKPSNTKVDKKVEPKSCDKTHTCPPCPAPEAAGAPSVFLFPPKPKDTLMISRTPEVTCVVVDVSHEDPEVKFNWYVDGVEVHNAKTKPREEQYNSTYRVVSVLTVLHQDWLNGKEYKCKVSNKALPAPIEKTISKAKGQPREPQVYTLPPSREEMTKNQVSLTCLVKGFYPSDIAVEWESNGQPENNYKTTPPVLDSDGSFFLYSKLTVDKSRWQQGNVFSCSVMHEALHNHYTQKSLSLSPGKGGGGSGGGGSGGGGSPKKKIQLHAEHALYSALMILNIVKTNSPPAEEKLEDYAFNFELILEEIARLFESGDQKDEAEKAKRMKEWMKRIKTTASEDEQEEMANAIITILESWIFS
light: DIQMTQSPSTLSASVGDRVTITCSASSSISYMHWYQQKPGKAPKLLIYTTSNLASGVPARFSGSGSGTEFTLTISSLQPDDFATYYCHQRSTYPLTFGQGTKVEVKRTVAAPSVFIFPPSDEQLKSGTASVVCLLNNFYPREAKVQWKVDNALQSGNSQESVTEQDSKDSTYSLSSTLTLSKADYEKHKVYACEVTHQGLSSPVTKSFNRGEC
notes: also called distal fused TRA
Regarding B8, the Kd in assay [5] amounted to 131 nM.

B9: N terminal anti-CD25 full-length Ab fusion with Neo-2/15_D15S_Q95E (other)
heavy: GSPKKKIQLHAEHALYSALMILNIVKTNSPPAEEKLEDYAFNFELILEEIARLFESGDQKDEAEKAKRMKEWMKRIKTTASEDEQEEMANAIITILESWIFSGGGGSGGGGSGGGGSQVQLVQSGAEVKKPGSSVKVSCKASGYTFTSYRMHWVRQAPGQGLEWIGYINPSTGYTEYNQKFKDKATITADESTNTAYMELSSLRSEDTAVYYCARGGGVFDYWGQGTLVTVSSASTKGPSVFPLAPSSKSTSGGTAALGCLVKDYFPEPVTVSWNSGALTSGVHTFPAVLQSSGLYSLSSVVTVPSSSLGTQTYICNVNHKPSNTKVDKKVEPKSCDKTHTCPPCPAPEAAGAPSVFLFPPKPKDTLMISRTPEVTCVVVDVSHEDPEVKFNWYVDGVEVHNAKTKPREEQYNSTYRVVSVLTVLHQDWLNGKEYKCKVSNKALPAPIEKTISKAKGQPREPQVYTLPPSREEMTKNQVSLTCLVKGFYPSDIAVEWESNGQPENNYKTTPPVLDSDGSFFLYSKLTVDKSRWQQGNVFSCSVMHEALHNHYTQKSLSLSPGK
light: DIQMTQSPSTLSASVGDRVTITCSASSSISYMHWYQQKPGKAPKLLIYTTSNLASGVPARFSGSGSGTEFTLTISSLQPDDFATYYCHQRSTYPLTFGQGTKVEVKRTVAAPSVFIFPPSDEQLKSGTASVVCLLNNFYPREAKVQWKVDNALQSGNSQESVTEQDSKDSTYSLSSTLTLSKADYEKHKVYACEVTHQGLSSPVTKSFNRGEC
Take B9: the Kd in assay [5] is 82 nM.

B10: N terminal anti-CD25 full-length Ab fusion with Neo-2/15_N40S_I44S_Q95E (TRA comprising SEQ ID NO: 74 and 70) (other)
heavy: GSPKKKIQLHAEHALYDALMILNIVKTNSPPAEEKLEDYAFSFELSLEEIARLFESGDQKDEAEKAKRMKEWMKRIKTTASEDEQEEMANAIITILESWIFSGGGGSGGGGSGGGGSQVQLVQSGAEVKKPGSSVKVSCKASGYTFTSYRMHWVRQAPGQGLEWIGYINPSTGYTEYNQKFKDKATITADESTNTAYMELSSLRSEDTAVYYCARGGGVFDYWGQGTLVTVSSASTKGPSVFPLAPSSKSTSGGTAALGCLVKDYFPEPVTVSWNSGALTSGVHTFPAVLQSSGLYSLSSVVTVPSSSLGTQTYICNVNHKPSNTKVDKKVEPKSCDKTHTCPPCPAPEAAGAPSVFLFPPKPKDTLMISRTPEVTCVVVDVSHEDPEVKFNWYVDGVEVHNAKTKPREEQYNSTYRVVSVLTVLHQDWLNGKEYKCKVSNKALPAPIEKTISKAKGQPREPQVYTLPPSREEMTKNQVSLTCLVKGFYPSDIAVEWESNGQPENNYKTTPPVLDSDGSFFLYSKLTVDKSRWQQGNVFSCSVMHEALHNHYTQKSLSLSPGK
light: DIQMTQSPSTLSASVGDRVTITCSASSSISYMHWYQQKPGKAPKLLIYTTSNLASGVPARFSGSGSGTEFTLTISSLQPDDFATYYCHQRSTYPLTFGQGTKVEVKRTVAAPSVFIFPPSDEQLKSGTASVVCLLNNFYPREAKVQWKVDNALQSGNSQESVTEQDSKDSTYSLSSTLTLSKADYEKHKVYACEVTHQGLSSPVTKSFNRGEC
notes: also called proximal fused TRA
B10: in assay [5], the Kd worked out at 131 nM.
